The target in one series is MeCP2 MBD wild type (UniProt P51608 78-163). Kind of series: EMSA; 2, 4, 8 uM protein; 1.8 uM DNA; 1.8 uM poly(dG-dC) competitor; reference; EMSA: 100 mM Tris-HCl pH 7.5, 500 mM KCl, 10 mM DTT, 1.8 uM poly(dG-dC), room temperature 30 min; 8% native PAGE in Tris-glycine pH 8.3 at 277 K. As to conditions: protein: recombinant; 5' overhang 1 nt on each strand (T and A), 19 bp. Background: In EMSA bound probe runs differently from free probe, usually more slowly.

In another series the target is MeCP2 MBD-TRD wild type (UniProt P51608 78-310). The series is described as above. As to conditions: protein: recombinant; 5' overhang 1 nt on each strand (T and A), 19 bp.

B1: methylated BDNFProIII 20-mer (dsDNA)
DNA 1: TCTGGAACGGAATTCTTCTA
DNA 2: ATAGAAGAATTCCGTTCCAG
modifications: 5-methylcytosine at position 8 of strand 1 and position 13 of strand 2 (C33 in duplex numbering)
On to B1, for which the binding signal was 100 % of wild-type MBD complex in the series with MeCP2 MBD wild type and 100 % of wild-type MBD-TRD complex in the series with MeCP2 MBD-TRD wild type.

The values above are taken from paper PMC4977486, “A/T Run Geometry of B-form DNA Is Independent of Bound Methyl-CpG Binding Domain, Cytosine Methylation and Flanking Sequence”.
